{"source": "patent US20070134663", "key": {"MSN-V5-His, P26038": {"target": "T1, MSN-V5-His, P26038", "T1 chain": "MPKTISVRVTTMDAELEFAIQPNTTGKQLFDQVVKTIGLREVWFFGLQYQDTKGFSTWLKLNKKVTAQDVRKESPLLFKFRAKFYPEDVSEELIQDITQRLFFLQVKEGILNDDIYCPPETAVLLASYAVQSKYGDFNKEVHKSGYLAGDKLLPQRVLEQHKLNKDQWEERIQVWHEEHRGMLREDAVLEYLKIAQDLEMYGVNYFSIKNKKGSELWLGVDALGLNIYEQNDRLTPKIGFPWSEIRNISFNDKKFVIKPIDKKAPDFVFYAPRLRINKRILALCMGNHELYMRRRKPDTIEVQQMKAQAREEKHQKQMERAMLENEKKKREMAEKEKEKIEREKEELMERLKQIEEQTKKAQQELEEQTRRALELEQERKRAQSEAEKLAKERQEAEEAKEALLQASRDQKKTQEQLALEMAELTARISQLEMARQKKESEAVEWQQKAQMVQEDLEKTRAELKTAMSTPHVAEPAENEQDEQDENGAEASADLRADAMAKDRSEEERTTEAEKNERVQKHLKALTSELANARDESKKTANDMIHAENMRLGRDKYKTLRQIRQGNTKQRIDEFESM"}, "[1]": {"target": "FLAG-Luc [luciferase: P08659]", "sequence (P08659 whole entry)": "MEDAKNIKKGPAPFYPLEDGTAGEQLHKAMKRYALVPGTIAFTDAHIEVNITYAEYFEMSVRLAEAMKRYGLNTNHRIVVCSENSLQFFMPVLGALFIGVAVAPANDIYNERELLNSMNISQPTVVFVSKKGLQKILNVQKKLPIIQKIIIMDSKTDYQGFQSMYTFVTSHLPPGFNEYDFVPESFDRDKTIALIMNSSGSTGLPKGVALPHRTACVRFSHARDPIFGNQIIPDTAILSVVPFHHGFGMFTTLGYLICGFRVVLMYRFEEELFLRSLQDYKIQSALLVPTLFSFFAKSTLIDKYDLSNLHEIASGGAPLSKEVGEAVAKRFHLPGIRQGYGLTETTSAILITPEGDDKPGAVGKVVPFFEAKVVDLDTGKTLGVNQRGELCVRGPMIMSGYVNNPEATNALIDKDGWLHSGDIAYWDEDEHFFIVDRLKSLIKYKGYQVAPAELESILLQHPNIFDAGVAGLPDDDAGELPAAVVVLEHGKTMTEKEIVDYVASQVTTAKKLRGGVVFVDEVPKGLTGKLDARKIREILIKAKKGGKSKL"}}, "data": [{"protein": "purified PKC theta (Upstate) (protein) MSPFLRIGLSNFDCGSCQSCQGEAVNPYCAVLVKEYVESENGQMYIQKKPTMYPPWDSTFDAHINKGRVMQIIVKGKNVDLISETTVELYSLAERCRKNNGKTEIWLELKPQGRMLMNARYFLEMSDTKDMNEFETEGFFALHQRRGAIKQAKVHHVKCHEFTATFFPQPTFCSVCHEFVWGLNKQGYQCRQCNAAIHKKCIDKVIAKCTGSAINSRETMFHKERFKIDMPHRFKVYNYKSPTFCEHCGTLLWGLARQGLKCDACGMNVHHRCQTKVANLCGINQKLMAEALAMIESTQQARCLRDTEQIFREGPVEIGLPCSIKNEARPPCLPTPGKREPQGISWESPLDEVDKMCHLPEPELNKERPSLQIKLKIEDFILHKMLGKGSFGKVFLAEFKKTNQFFAIKALKKDVVLMDDDVECTMVEKRVLSLAWEHPFLTHMFCTFQTKENLFFVMEYLNGGDLMYHIQSCHKFDLSRATFYAAEIILGLQFLHSKGIVYRDLKLDNILLDKDGHIKIADFGMCKENMLGDAKTNTFCGTPDYIAPEILLGQKYNHSVDWWSFGVLLYEMLIGQSPFHGQDEEELFHSIRMDNPFYPRWLEKEAKDLLVKLFVREPEKRLGVRGDIRQHPLFREINWEELERKEIDPPFRPKVKSPFDCSNFDKEFLNEKPRLSFADRALINSMDQNMFRNFSFMNPGMERLIS", "values": [{"measurement": "phosphorylation of substrate, in vitro kinase assay with gamma-32P-ATP, SDS-PAGE and autoradiography", "setting": "MSN-V5-His, P26038", "value": "the positive control MSN contains phosphorylated band (molecular weight of about 71 kDa)"}, {"measurement": "phosphorylation of substrate, in vitro kinase assay with gamma-32P-ATP, SDS-PAGE and autoradiography", "setting": "FLAG-KPNA1, P52294", "value": "phosphorylated band of KPNA1 (molecular weight of about 63 kDa) was observed"}, {"measurement": "phosphorylation of substrate, in vitro kinase assay with gamma-32P-ATP, SDS-PAGE and autoradiography", "setting": "[1]", "value": "the negative control Luc does not contain phosphorylated band (molecular weight of about 62 kDa)"}]}]}
